In publication PMC4507180:
Changes are numbered by the printed parent chain.

Key:
[1] = biological target: DndB protein of Salmonella enterica serovar Cerro 87 (Salmonella enterica serovar Cerro 87); assay: SEC; HiLoad 16/60 Superdex 200; 20 mM Tris-HCl pH 8.0, 150 mM NaCl; 0.7 mL/min; calibrated with myoglobin, ovalbumin, albumin, phosphorylase b, gamma-globulin; native mass 79 kDa
[2] = biological target: T1, DndB (Salmonella enterica serovar Cerro 87) (UniProt E2D676); assay: EMSA; settings: EMSA: 20 mM Tris-HCl pH 8.0, 50 mM KCl, 10 mM MgCl2, 5 mM EDTA, 10 mM DTT, 5% glycerol, room temperature 30 min, 20 nM DNA; footprinting: 25 C 30 min, 200 ng …
T1 sequence: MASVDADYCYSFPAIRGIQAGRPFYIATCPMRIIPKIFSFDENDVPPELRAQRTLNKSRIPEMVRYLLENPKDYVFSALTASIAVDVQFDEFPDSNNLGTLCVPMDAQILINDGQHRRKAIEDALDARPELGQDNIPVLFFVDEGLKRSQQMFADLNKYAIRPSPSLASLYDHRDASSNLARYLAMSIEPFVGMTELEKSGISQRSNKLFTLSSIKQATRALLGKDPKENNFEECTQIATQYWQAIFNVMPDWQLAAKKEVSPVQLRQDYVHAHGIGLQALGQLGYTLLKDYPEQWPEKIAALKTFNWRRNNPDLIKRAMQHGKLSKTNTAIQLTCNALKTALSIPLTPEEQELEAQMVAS

[3] = biological target: T2, DndB C29S C29S (Salmonella enterica serovar Cerro 87) (UniProt E2D676); assay: EMSA; settings: EMSA: 20 mM Tris-HCl pH 8.0, 50 mM KCl, 10 mM MgCl2, 5 mM EDTA, 10 mM DTT, 5% glycerol, room temperature 30 min, 20 nM DNA; footprinting: 25 C 30 min, 200 ng …
T2 sequence: T1 sequence with C29S

stoichiometry N [1]	Substance	binding [2]	binding [3]
2	DndB protein of Salmonella enterica serovar Cerro 87 (natural protein)		
	GCTGTAATCCGTGTAAAAATCGAATGAATTGAGTTACGTGATATTTTACGTAATGCTTAATAAAATTTATAGTTTTTTTTATGTTTTACGTGATTTTTTGCGTACAGGGTTCCATATCTGAGA (double strand) [B1]	300 nM	90 nM
